The text below walks through data of IntAct's records for PubMed 25910212.

B1: PiggyBac transposable element-derived protein 1 (Homo sapiens), Q96JS3 (parent)
chain: MYEALPGPAPENEDGLVKVKEEDPTWEQVCNSQEGSSHTQEICRLRFRHFCYQEAHGPQEALAQLRELCHQWLRPEMHTKEQIMELLVLEQFLTILPKELQPCVKTYPLESGEEAVTVLENLETGSGDTGQQASVYIQGQDMHPMVAEYQGVSLECQSLQLLPGITTLKCEPPQRPQGNPQEVSGPVPHGSAHLQEKNPRDKAVVPVFNPVRSQTLVKTEEETAQAVAAEKWSHLSLTRRNLCGNSAQETVMSLSPMTEEIVTKDRLFKAKQETSEEMEQSGEASGKPNRECAPQIPCSTPIATERTVAHLNTLKDRHPGDLWARMHISSLEYAAGDITRKGRKKDKARVSELLQGLSFSGDSDVEKDNEPEIQPAQKKLKVSCFPEKSWTKRDIKPNFPSWSALDSGLLNLKSEKLNPVELFELFFDDETFNLIVNETNNYASQKNVSLEVTVQEMRCVFGVLLLSGFMRHPRREMYWEVSDTDQNLVRDAIRRDRFELIFSNLHFADNGHLDQKDKFTKLRPLIKQMNKNFLLYAPLEEYYCFDKSMCECFDSDQFLNGKPIRIGYKIWCGTTTQGYLVWFEPYQEESTMKVDEDPDLGLGGNLVMNFADVLLERGQYPYHLCFDSFFTSVKLLSALKKKGVRATGTIRENRTEKCPLMNVEHMKKMKRGYFDFRIEENNEIILCRWYGDGIISLCSNAVGIEPVNEVSCCDADNEEIPQISQPSIVKVYDECKEGVAKMDQIISKYRVRIRSKKWYSILVSYMIDVAMNNAWQLHRACNPGASLDPLDFRRFVAHFYLEHNAHLSD
B2: Sodium/myo-inositol cotransporter 2 (Homo sapiens), Q8WWX8-3 (parent)
chain: MVWWPVGASLFASNVGSGHFIGLAGSGAATGISVSAYELNGLFSVLMLAWIFLPIYIAGQVTTMPEYLRKRFGGIRIPIILAVLYLFIYIFTKISVDMYAGAIFIQQSLHLDLYLAIVGLLAITAVYTVAGGLAAVIYTDALQTLIMLIGALTLMGYSFAAVGGMEGLKEKYFLALASNRSENSSCGLPREDAFHIFRDPLTSDLPWPGVLFGMSIPSLWYWCTDQVIVQRTLAAKNLSHAKGGALMAAYLKVLPLFIMVFPGMVSRILFPDQVACADPEICQKICSNPSGCSDIAYPKLVLELLPTGLRGLMMAVMVAALMSSLTSIFNSASTIFTMDLWNHLRPRASEKELMIVGRVFVLLLVLVSILWIPVVQASQGGQLFIYIQSISSYLQPPVAVVFIMGCFWKRTNEKGAFWGLISGLLLGLVRLVLDFIYVQPRCDQPDERPVLVKSIHYLYFSMILSTVTLITVSTVSWFTEPPSKEMVSHLTWFTRHDPVVQKEQAPPAAPLSLTLSQNGMPEASSSSSVQFEMVQENTSKTHSCDMTPKQSKVVKAILWLCGIQEKGKEELPARAEAIIVSLEENPLVKTLLDVNLIFCVSCAIFIWGYFA
B3: N-chimaerin (Homo sapiens), P15882 (parent)
chain: MALTLFDTDEYRPPVWKSYLYQLQQEAPHPRRITCTCEVENRPKYYGREFHGMISREAADQLLIVAEGSYLIRESQRQPGTYTLALRFGSQTRNFRLYYDGKHFVGEKRFESIHDLVTDGLITLYIETKAAEYIAKMTINPIYEHVGYTTLNREPAYKKHMPVLKETHDERDSTGQDGVSEKRLTSLVRRATLKENEQIPKYEKIHNFKVHTFRGPHWCEYCANFMWGLIAQGVKCADCGLNVHKQCSKMVPNDCKPDLKHVKKVYSCDLTTLVKAHTTKRPMVVDMCIREIESRGLNSEGLYRVSGFSDLIEDVKMAFDRDGEKADISVNMYEDINIITGALKLYFRDLPIPLITYDAYPKFIESAKIMDPDEQLETLHEALKLLPPAHCETLRYLMAHLKRVTLHEKENLMNAENLGIVFGPTLMRSPELDAMAALNDIRYQRLVVELLIKNEDILF
B4: ATP synthase mitochondrial F1 complex assembly factor 2 (Homo sapiens), Q8N5M1 (parent)
chain: MWRSCLRLRDGGRRLLNRPAGGPSASMSPGPTIPSPARAYAPPTERKRFYQNVSITQGEGGFEINLDHRKLKTPQAKLFTVPSEALAIAVATEWDSQQDTIKYYTMHLTTLCNTSLDNPTQRNKDQLIRAAVKFLDTDTICYRVEEPETLVELQRNEWDPIIEWAEKRYGVEISSSTSIMGPSIPAKTREVLVSHLASYNTWALQGIEFVAAQLKSMVLTLGLIDLRLTVEQAVLLSRLEEEYQIQKWGNIEWAHDYELQELRARTAAGTLFIHLCSESTTVKHKLLKE
partner: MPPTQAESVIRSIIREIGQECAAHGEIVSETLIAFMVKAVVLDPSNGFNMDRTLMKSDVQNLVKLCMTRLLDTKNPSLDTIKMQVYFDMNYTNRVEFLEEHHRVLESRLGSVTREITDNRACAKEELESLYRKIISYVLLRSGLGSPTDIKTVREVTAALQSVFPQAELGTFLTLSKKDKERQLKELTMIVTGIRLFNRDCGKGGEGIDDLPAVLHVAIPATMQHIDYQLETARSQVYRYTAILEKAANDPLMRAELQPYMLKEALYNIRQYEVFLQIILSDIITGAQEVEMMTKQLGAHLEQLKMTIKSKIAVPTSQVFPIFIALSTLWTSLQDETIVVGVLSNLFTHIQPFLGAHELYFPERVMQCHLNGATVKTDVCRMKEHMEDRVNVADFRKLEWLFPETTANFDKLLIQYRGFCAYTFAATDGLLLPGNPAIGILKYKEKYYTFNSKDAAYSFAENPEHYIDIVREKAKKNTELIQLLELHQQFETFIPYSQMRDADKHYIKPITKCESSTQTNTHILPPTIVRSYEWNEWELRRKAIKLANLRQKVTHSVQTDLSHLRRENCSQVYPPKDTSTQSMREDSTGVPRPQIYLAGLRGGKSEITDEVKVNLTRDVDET
B5: U4/U6 small nuclear ribonucleoprotein Prp31 (Homo sapiens), Q8WWY3 (parent)
chain: MSLADELLADLEEAAEEEEGGSYGEEEEEPAIEDVQEETQLDLSGDSVKTIAKLWDSKMFAEIMMKIEEYISKQAKASEVMGPVEAAPEYRVIVDANNLTVEIENELNIIHKFIRDKYSKRFPELESLVPNALDYIRTVKELGNSLDKCKNNENLQQILTNATIMVVSVTASTTQGQQLSEEELERLEEACDMALELNASKHRIYEYVESRMSFIAPNLSIIIGASTAAKIMGVAGGLTNLSKMPACNIMLLGAQRKTLSGFSSTSVLPHTGYIYHSDIVQSLPPDLRRKAARLVAAKCTLAARVDSFHESTEGKVGYELKDEIERKFDKWQEPPPVKQVKPLPAPLDGQRKKRGGRRYRKMKERLGLTEIRKQANRMSFGEIEEDAYQEDLGFSLGHLGKSGSGRVRQTQVNEATKARISKTLQRTLQKQSVVYGGKSTIRDRSSGTASSVAFTPLQGLEIVNPQAAEKKVAEANQKYFSSMAEFLKVKGEKSGLMST
partner: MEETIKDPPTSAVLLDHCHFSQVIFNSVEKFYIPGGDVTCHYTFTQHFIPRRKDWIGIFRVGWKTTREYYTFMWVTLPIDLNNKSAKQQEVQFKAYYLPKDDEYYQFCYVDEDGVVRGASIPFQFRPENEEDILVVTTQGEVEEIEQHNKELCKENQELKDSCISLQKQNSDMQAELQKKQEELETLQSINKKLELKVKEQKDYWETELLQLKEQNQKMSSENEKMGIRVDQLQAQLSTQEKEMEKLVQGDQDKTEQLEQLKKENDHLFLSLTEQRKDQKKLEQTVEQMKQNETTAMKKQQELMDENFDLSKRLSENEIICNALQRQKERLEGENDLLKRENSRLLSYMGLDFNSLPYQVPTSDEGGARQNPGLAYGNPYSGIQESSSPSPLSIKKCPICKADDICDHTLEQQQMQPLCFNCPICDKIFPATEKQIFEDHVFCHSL

Variants of B1 are the subject of the first experiment. Conditions: with NR4A1, P22736-2.
NR4A1, P22736-2, sequence (P22736 other isoform, or with tags, fused parts or gaps): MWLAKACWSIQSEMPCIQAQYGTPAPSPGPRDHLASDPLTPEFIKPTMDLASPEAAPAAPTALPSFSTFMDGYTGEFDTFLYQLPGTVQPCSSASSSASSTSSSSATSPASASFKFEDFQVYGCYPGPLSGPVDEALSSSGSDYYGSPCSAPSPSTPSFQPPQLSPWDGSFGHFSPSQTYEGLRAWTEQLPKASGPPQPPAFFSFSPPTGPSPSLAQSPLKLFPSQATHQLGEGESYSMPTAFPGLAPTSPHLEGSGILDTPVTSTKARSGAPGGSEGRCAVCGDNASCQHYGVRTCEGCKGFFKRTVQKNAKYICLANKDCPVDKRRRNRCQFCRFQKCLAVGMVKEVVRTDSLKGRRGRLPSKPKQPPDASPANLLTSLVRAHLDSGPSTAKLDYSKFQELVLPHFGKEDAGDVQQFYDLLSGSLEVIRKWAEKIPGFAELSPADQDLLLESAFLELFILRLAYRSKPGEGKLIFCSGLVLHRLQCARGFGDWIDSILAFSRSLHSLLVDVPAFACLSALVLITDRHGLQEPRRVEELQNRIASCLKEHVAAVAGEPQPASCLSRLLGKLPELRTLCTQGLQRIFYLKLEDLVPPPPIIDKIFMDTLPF
As to H806D, the “effect of a mutation on the interaction” value was “with no effect”.

Q248E: the “effect of a mutation on the interaction” value is “with no effect”.

Regarding P256L, the “effect of a mutation on the interaction” value is reported as “with no effect”.

Another experiment covers variants of B1. The settings on record: with znf24_human ZNF24, P17028.
znf24_human ZNF24, P17028, sequence (P17028 whole entry): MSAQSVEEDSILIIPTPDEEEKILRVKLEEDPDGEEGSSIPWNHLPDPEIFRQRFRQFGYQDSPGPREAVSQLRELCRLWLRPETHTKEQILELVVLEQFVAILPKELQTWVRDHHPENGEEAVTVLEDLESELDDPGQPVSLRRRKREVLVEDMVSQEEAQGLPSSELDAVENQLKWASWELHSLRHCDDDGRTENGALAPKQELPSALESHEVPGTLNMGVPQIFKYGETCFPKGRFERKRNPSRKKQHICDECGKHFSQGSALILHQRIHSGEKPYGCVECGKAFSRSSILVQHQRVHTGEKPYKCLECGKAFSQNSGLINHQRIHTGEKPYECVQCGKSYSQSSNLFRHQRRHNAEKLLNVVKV
Turning to H806D, the “effect of a mutation on the interaction” value is given as “with no effect”.

Regarding Q248E, the “effect of a mutation on the interaction” value is “with no effect”.

With P256L, the “effect of a mutation on the interaction” value was “with no effect”.

The variants in a further experiment derive from B1. The settings on record: with zn496_human ZNF496, Q96IT1.
zn496_human ZNF496, Q96IT1, sequence (Q96IT1 whole entry): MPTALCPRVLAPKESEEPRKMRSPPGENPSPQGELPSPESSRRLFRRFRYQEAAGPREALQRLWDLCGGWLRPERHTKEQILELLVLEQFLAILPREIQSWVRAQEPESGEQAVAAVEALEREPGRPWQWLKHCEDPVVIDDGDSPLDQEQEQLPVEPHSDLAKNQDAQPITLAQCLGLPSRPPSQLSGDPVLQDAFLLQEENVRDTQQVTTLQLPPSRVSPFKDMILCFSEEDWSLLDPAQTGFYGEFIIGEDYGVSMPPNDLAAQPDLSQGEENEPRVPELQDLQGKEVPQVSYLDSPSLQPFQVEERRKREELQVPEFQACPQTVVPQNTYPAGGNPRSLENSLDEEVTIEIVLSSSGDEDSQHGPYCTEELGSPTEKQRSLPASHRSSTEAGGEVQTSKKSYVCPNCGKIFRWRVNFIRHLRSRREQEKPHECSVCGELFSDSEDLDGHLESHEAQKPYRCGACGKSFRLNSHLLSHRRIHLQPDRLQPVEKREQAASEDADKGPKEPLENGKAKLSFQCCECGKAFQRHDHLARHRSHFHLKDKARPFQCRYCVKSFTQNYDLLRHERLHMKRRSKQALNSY
Take H806D: the “effect of a mutation on the interaction” value is “with no effect”.

Regarding Q248E, the “effect of a mutation on the interaction” value is on record as “with no effect”.

Regarding P256L, the “effect of a mutation on the interaction” value is “with no effect”.

Variants of B1 are the subject of the next experiment. Conditions: with zsc22_human ZSCAN22, P10073.
zsc22_human ZSCAN22, P10073, sequence (P10073 whole entry): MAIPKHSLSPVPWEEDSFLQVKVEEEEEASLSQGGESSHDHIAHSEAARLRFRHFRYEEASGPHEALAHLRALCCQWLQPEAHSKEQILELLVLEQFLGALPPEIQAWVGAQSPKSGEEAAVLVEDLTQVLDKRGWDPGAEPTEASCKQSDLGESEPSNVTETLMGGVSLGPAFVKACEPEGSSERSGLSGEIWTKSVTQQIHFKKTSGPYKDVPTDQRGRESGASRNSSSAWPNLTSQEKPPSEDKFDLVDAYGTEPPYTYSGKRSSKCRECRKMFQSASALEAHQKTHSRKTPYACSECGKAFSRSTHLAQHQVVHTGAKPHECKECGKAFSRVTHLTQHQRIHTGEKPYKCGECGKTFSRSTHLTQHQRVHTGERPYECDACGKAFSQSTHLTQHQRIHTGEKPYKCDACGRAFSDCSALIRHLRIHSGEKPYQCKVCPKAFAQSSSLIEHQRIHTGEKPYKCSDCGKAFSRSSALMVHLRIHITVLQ
Regarding H806D, the “effect of a mutation on the interaction” value is listed as “with no effect”.

As for Q248E, the “effect of a mutation on the interaction” value is listed as “with no effect”.

As to P256L, the “effect of a mutation on the interaction” value is “with no effect”.

The next experiment covers variants of B1. Conditions: with meox2_human MEOX2, P50222.
meox2_human MEOX2, P50222, sequence (P50222 whole entry): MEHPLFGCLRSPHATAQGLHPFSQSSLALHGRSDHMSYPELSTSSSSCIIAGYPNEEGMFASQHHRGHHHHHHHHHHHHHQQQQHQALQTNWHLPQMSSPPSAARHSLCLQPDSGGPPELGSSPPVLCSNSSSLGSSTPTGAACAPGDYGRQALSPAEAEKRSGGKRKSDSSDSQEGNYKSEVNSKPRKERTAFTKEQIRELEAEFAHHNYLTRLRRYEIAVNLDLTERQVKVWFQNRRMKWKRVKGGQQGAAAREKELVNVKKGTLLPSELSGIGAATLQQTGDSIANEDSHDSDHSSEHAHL
Take H806D: the “effect of a mutation on the interaction” value is on record as “with no effect”.

Consider Q248E, for which the “effect of a mutation on the interaction” value is listed as “with no effect”.

Consider P256L, for which the “effect of a mutation on the interaction” value is “with no effect”.

The next experiment covers variants of B2. The settings on record: with ima4_human KPNA3, O00505.
ima4_human KPNA3, O00505, sequence (O00505 whole entry): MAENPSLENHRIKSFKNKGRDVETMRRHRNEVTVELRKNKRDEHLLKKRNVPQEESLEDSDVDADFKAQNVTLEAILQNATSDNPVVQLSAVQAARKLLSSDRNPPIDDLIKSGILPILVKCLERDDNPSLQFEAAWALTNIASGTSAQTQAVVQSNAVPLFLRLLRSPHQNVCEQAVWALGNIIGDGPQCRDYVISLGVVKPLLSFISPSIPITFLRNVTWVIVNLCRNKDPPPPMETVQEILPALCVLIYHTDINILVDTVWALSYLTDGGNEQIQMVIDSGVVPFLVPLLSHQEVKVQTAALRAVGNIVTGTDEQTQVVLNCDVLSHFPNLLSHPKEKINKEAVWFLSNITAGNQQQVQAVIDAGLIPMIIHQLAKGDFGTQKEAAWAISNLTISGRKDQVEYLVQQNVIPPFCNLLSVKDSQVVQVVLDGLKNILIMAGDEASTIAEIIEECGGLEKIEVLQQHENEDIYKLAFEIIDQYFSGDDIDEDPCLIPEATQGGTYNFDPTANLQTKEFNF
On to V118A, for which the “effect of a mutation on the interaction” value is reported as “with no effect”.

In another experiment the parent is B3. The settings on record: with nck2_human NCK2, O43639.
nck2_human NCK2, O43639, sequence (O43639 whole entry): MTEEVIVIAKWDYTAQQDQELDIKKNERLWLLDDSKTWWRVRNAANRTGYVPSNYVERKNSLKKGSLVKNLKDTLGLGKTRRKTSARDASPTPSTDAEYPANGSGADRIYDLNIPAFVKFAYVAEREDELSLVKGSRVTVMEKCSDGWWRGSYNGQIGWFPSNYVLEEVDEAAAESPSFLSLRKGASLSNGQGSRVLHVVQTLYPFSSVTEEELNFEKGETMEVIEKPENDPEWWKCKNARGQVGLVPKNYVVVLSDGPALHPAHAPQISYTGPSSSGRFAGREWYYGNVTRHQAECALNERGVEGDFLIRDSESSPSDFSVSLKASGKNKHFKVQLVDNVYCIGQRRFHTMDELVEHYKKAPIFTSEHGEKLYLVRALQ
As for P252Q, the “effect of a mutation on the interaction” value is “with no effect”.

With L20F, the “effect of a mutation on the interaction” value was “with no effect”.

As for G228S, the “effect of a mutation on the interaction” value was “with no effect”.

On to A223V, for which the “effect of a mutation on the interaction” value is listed as “with no effect”.

The next experiment covers variants of B4. Conditions: with cf206_human CFAP206, Q8IYR0.
For W94R, the “effect of a mutation on the interaction” value is recorded as “disrupting interaction strength”.

The variants in the next experiment derive from B5. The settings on record: with caco2_human CALCOCO2, Q13137.
In the case of L107V, the “effect of a mutation on the interaction” value was “with no effect”.
